# In patent publication US10105442B2, “Treatment of diabetes type 1 using GLP-1 and anti-IL-21” (Novo Nordisk A/S, priority 2014, dated 2018):
# B1: Anti-IL-21: Mouse surrogate anti-IL-21 antibody, mIgG1/kappa isotype, VL SEQ ID NO:26 and VH SEQ ID NO:27, raised against recombinant mouse IL-21 (antibody, V domains shown)
# VH: MNFGPSLIFLVLILKGVQCEVQLVESGGGLVKPGGSLKLSCAASGFTFNRYSMSWVRQSPEKRLEWVAEISVGGSYTQYVDIVTGRFTISRDNAKNTLYLEMSSLRSEDTAMYYCARLYYSGSGDSYYYAMDYWGQGTSVTVSS
# VL: MDFQVQIFSFLLISASVILSRGQTVLIQSPAIMSASPGEKVTMTCSASSSVSYMHWYQQKSGTSPKRWIYDTSKLASGVPARFSGSGSGTSYSLTISSMEAEDAATYYCQQWNSNPPTFGGGTKLEMK
# Molecular target: T1, mIL-21 (Mus musculus, UniProt Q9ES17)
# T1 construct: purchased
# Test: Inhibition of IL-21-driven B cell proliferation (Assay IV)
# Assay type: cell-based
# Details: mouse B cells stimulated with anti-IgM, anti-CD40 and rmIL-21, 72 h, 3H-thymidine incorporation
# Description: Assay (IV): Inhibition of IL-21-Driven B Cell Proliferation.
# As a functionality test, anti-mIL-21 is tested for its ability to neutralize mIL-21-driven B cell proliferation. Equivalent assays may be performed for testing of anti-hIL-21 antibodies, such as Example 10 of WO2013/164021 that utilizes PBMC's isolated from healthy human volunteers. Further information on ability to inhibit B-cell maturation may be obtained as described in Example 6 and 12 of WO2012/098113.
# Mouse B cells are purified from spleens harvested from 6-8 weeks old wild-type C57BL/6 mice. Single cell splenocytes are prepared by forcing the organ through a 70 μm cell strainer into PBS. B cells were purified by anti-B220 positive selection by magnetic beads, using magnetic beads and an AutoMACS cell separator (Miltenyi Biotec) according to manufacturer's protocol.
# Cells are stimulated in vitro with: a) soluble anti-IgM (1 μg/mL), b) soluble anti-CD40 (1 μg/mL) and c) mIL-21 (25, 50, 100 ng/mL). 10^5 purified B cells were added per well in a 96-well-plate and stimulated for 72 h at 37° C. with soluble IgM (1 μg/mL), soluble anti-CD40 IgM (1 μg/mL) and rmIL-21 (100 ng/mL) in the presence of an anti-IL-21 antibody or an isotype control antibody. For the last 18 h of incubation 3H-thymidine is added to each well and thymidine-incorporation (proliferation) was measured on a Top Counter liquid scintilator (Perkin Elmer)
molecule,measurement,value
B1,Inhibition of mIL-21-driven B-cell proliferation (in words),capable of inhibiting B-cell proliferation in a concentration dependent manner
